Assay results published in the supplement of paper PMC10065799, “High-throughput profiling of sequence recognition by tyrosine kinases and SH2 domains using bacterial peptide display” (eLife, 2023).

Legend:
SHP2-C SH2 = experiment: SH2 binding enrichment of the phosphorylated peptide, bacterial display (enrichment ratio); higher = better substrate or ligand; peptides without Tyr show the background
Grb2 SH2 = Grb2 SH2 (UniProt P62993); experiment: as above
c-Src SH2 = experiment: as above
c-Abl (mouse) = experiment: phosphorylation enrichment, bacterial display (enrichment ratio); higher = better substrate or ligand; peptides without Tyr show the background
Fer (mouse) = experiment: as above
MERTK = MERTK (UniProt Q12866); experiment: as above
AncSZ = experiment: as above
Fes = Fes (UniProt P07332); experiment: as above
Fyn = Fyn (UniProt P06241); experiment: as above
FGFR1 = FGFR1 (UniProt P11362); experiment: as above
EPHB2 = EPHB2 (UniProt P29323); experiment: as above
c-Src = experiment: as above
FGFR3 = FGFR3 (UniProt P22607); experiment: as above
Hck = Hck (UniProt P08631); experiment: as above
EPHB1 = EPHB1 (UniProt P54762); experiment: as above
Jak2 = Jak2 (UniProt O60674); experiment: as above
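Throughout, for SH2 binding enrichment of the phosphorylated peptide, bacterial display: peptide library displayed on the E. coli surface as eCPX fusions, selected cells deep-sequenced, score is each peptide's frequency after selection divided by its frequency in the input.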
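Throughout, for phosphorylation enrichment, bacterial display: 11-residue human phosphosite peptides and single-mutation variants displayed on the E. coli surface, counted by deep sequencing, each peptide's frequency after selection divided by its frequency in the unselected input library; frequency after pTyr selection over input frequency; kinase dosed for 20-30% of maximal phosphorylation in three min.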

Chain of Grb2 SH2 (P62993 whole entry, looked up): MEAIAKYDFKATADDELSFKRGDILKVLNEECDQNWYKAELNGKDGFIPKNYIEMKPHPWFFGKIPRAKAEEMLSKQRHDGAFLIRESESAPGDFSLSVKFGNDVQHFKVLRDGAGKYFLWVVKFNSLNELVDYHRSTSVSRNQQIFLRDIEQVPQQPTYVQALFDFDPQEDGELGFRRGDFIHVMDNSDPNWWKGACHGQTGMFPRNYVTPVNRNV
Chain of Hck (P08631 whole entry, looked up): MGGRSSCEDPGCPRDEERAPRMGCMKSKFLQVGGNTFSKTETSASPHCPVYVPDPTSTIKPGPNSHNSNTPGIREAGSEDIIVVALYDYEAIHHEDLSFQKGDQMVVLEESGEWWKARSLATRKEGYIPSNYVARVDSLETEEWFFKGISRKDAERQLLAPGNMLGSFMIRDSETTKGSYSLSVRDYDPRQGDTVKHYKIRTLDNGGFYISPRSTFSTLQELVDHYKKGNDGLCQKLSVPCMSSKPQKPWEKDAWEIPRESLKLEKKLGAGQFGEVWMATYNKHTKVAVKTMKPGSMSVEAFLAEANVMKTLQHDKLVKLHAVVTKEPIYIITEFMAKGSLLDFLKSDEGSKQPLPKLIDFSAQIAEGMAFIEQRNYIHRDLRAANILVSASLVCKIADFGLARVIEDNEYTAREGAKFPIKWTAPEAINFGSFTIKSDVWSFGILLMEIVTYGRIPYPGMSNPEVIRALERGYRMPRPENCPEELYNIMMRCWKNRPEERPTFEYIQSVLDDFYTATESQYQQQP
Chain of FGFR1 (P11362 whole entry, looked up): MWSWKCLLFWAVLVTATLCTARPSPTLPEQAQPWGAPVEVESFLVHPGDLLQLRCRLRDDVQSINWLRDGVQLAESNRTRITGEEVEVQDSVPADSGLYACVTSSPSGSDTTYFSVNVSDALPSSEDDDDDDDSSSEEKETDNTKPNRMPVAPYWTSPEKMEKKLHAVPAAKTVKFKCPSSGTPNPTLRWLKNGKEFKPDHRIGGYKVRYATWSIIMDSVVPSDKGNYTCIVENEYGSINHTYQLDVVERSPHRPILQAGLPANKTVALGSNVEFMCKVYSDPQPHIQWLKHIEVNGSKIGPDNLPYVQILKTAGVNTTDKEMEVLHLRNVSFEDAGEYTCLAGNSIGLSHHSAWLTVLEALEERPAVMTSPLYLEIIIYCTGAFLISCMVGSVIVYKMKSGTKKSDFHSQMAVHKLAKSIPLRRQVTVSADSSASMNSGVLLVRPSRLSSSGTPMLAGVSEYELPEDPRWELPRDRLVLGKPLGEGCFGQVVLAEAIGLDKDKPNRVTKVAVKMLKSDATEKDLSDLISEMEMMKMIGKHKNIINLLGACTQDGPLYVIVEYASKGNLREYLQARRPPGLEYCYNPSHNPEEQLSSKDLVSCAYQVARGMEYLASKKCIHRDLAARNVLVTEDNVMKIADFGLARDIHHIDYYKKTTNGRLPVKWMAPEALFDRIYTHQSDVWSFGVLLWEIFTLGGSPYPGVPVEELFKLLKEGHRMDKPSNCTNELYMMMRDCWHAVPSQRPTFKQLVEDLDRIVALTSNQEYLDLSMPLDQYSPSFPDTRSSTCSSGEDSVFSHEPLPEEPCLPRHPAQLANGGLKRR
Chain of EPHB1 (P54762 whole entry, looked up): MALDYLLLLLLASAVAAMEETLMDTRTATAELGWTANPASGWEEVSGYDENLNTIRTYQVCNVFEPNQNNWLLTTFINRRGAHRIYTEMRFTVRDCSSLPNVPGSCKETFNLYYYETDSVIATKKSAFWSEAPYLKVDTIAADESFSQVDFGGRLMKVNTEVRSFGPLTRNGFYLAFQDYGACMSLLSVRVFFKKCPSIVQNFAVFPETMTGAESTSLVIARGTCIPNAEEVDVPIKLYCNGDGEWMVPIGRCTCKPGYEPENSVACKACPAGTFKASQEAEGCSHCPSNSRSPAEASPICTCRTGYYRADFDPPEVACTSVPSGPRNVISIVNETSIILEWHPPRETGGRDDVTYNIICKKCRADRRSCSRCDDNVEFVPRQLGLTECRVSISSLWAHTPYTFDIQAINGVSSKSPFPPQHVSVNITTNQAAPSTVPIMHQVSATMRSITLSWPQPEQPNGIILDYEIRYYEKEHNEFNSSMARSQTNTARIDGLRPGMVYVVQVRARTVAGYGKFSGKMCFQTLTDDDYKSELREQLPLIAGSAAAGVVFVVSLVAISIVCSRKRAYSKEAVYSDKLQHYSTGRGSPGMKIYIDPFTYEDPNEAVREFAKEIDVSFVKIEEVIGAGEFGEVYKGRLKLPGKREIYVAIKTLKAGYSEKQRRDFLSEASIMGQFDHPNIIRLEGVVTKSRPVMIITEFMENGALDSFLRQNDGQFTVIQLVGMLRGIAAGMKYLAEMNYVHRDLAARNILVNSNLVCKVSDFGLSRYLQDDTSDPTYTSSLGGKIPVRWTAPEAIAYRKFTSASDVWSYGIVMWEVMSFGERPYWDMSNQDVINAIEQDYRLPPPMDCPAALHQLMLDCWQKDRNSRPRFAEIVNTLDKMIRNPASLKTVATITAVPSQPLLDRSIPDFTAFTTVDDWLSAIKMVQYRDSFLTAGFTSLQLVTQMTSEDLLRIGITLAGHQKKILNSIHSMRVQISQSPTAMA
Chain of Fes (P07332 whole entry, looked up): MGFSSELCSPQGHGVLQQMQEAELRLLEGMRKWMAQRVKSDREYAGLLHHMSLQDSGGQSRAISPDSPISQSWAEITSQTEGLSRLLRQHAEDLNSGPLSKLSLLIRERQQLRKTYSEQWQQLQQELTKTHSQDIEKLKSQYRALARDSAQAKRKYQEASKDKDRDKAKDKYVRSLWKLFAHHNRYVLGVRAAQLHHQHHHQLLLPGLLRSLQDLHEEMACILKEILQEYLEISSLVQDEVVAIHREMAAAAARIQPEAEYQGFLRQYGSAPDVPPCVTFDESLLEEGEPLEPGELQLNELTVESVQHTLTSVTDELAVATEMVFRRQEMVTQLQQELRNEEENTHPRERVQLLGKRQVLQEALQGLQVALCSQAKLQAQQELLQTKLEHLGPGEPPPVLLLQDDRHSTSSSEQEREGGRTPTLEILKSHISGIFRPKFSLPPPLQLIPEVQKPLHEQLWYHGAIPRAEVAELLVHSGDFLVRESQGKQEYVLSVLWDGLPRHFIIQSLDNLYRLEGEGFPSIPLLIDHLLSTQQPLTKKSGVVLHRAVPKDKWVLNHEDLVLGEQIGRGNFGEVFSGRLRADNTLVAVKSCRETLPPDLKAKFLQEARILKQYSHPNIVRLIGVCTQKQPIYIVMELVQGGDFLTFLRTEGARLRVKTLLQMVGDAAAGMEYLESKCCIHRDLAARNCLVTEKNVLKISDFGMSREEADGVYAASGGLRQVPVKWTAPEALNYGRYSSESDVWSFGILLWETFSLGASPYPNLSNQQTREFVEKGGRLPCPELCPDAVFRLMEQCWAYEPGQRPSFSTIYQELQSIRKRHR
Chain of Jak2 (O60674 whole entry, looked up, the tested form may be a part): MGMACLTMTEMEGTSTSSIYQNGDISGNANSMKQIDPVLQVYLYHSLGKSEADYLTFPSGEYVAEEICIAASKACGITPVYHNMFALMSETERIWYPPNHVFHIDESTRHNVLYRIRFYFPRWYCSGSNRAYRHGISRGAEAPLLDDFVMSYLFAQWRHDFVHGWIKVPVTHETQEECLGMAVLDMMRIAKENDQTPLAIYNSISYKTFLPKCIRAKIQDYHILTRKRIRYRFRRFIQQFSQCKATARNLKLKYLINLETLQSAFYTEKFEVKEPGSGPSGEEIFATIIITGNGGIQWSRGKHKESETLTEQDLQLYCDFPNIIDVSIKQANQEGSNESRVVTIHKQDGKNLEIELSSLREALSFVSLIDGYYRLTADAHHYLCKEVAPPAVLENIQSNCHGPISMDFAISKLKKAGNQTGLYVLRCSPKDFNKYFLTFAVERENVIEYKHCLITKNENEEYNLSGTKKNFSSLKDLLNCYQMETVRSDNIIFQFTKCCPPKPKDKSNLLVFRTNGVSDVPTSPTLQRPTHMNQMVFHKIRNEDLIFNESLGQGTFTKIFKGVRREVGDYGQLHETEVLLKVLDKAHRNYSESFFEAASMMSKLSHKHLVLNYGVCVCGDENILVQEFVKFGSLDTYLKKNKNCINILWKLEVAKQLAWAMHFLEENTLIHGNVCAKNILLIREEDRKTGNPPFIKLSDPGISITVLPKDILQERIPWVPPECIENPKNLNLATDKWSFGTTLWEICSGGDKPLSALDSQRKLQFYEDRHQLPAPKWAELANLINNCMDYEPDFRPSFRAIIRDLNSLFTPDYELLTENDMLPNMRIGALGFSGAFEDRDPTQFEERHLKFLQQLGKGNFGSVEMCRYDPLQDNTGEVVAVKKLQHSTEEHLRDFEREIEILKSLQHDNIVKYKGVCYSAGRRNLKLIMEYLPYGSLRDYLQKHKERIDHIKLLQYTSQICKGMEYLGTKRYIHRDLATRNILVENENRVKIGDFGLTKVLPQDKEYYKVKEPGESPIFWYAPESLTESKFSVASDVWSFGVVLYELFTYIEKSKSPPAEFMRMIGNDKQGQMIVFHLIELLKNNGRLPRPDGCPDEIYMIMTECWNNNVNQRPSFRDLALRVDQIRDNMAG
Chain of Fyn (P06241 whole entry, looked up): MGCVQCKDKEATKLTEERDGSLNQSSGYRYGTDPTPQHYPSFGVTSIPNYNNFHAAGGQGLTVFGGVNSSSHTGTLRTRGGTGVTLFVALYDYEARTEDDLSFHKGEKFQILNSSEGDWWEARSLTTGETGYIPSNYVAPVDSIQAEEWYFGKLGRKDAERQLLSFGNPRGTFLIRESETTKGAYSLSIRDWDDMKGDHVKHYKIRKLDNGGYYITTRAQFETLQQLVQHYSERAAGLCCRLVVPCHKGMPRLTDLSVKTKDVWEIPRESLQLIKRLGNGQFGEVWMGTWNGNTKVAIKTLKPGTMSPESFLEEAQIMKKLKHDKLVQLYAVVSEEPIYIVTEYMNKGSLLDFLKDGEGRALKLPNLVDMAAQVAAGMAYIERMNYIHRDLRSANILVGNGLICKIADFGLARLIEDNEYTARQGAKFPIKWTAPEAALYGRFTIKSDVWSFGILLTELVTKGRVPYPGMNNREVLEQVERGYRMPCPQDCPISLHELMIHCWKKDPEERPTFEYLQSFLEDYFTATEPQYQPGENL

Sequence	SH2 binding enrichment (SHP2-C SH2)	SH2 binding enrichment (Grb2 SH2)	SH2 binding enrichment (c-Src SH2)	phosphorylation enrichment (c-Abl (mouse))	phosphorylation enrichment (Fer (mouse))	phosphorylation enrichment (MERTK)	phosphorylation enrichment (AncSZ)	phosphorylation enrichment (Fes)	phosphorylation enrichment (Fyn)	phosphorylation enrichment (FGFR1)	phosphorylation enrichment (EPHB2)	phosphorylation enrichment (c-Src)	phosphorylation enrichment (FGFR3)	phosphorylation enrichment (Hck)	phosphorylation enrichment (EPHB1)	phosphorylation enrichment (Jak2)
LARDMYDKEFF [MET_Y1230_YF]	0.643	0.93	0.506	0.519	0.464	0.396	0.685	0.945	0.507	0.517	0.564	0.382	0.596	0.539	0.515	0.702
SPPILYSFFLN [FCRL6_Y239_D244N_YF]	1.28	1.29	0.763	2.75	5.01	10.5	1.08	1.17	2.46	1.41	2.36	3.41	1.38	3.03	3.03	1.05
QLYGPYLRIHA [BSCL2_Y213_A212P]	1.54	1.29	1.07	0.612	0.596	0.538	0.87	1.12	2.04	0.344	2.03	2.52	0.73	2.83	0.897	0.974
DTVRIYDDDFF [UBA1_Y560_E557V]	0.578	0.93	0.909	0.726	0.619	0.592	1.28	1.24	0.555	0.602	0.626	0.522	0.642	0.538	0.777	1.27
FHLGKYLQEVL [KLB_Y910_Y906H_YF]	0.935	0.706	0.49	1.01	0.48	0.428	1.58	1.52	0.346	0.415	0.514	0.491	0.788	0.591	0.415	1.36
ENGPYYTSYPP [GDAP2_Y488]	0.708	0.761	0.763	1.33	0.707	5.54	1.31	0.83	3.58	2.7	1	3.52	1.89	2.14	0.658	0.703
PIAPVYAPSMV [ACAT1_Y331_A333P]	0.718	0.785	0.621	49.8	16.1	4.7	1.35	1.67	9.96	0.779	2.72	8.41	1.22	21	2.4	0.738
FSVDGYDSSVR [KCNQ1_Y461]	0.727	0.948	0.688	0.648	0.36	0.311	0.693	0.773	0.461	0.427	0.513	0.37	0.53	0.393	0.519	0.672
SIDLGYHKDLQ [NF1_Y1169_G1166D]	0.486	0.661	0.544	0.557	0.503	0.531	1.17	0.777	0.51	0.607	0.478	0.552	0.485	0.454	0.46	0.856
RSSNTYTLTDV [ALCAM_Y298]	0.689	0.82	1.19	0.669	1.04	0.766	0.766	0.921	1.6	0.519	0.561	1.58	0.705	0.951	0.544	0.805
QVQQIYSDSDL [MIB1_Y376_R371Q]	0.836	0.965	0.573	1.09	7.33	4.04	1.3	1.88	6.18	0.85	2.35	5.36	0.932	3.84	1.49	1.05
KIVFVYVKKRS [DNAI2_Y7_E2K_YF]	1.13	1.27	0.856	0.576	0.478	0.354	1.06	0.966	0.425	0.466	0.48	0.428	0.731	0.449	0.439	0.925
RSSGGYEPRGC [FUS_Y239_R244C]	0.872	0.913	0.509	0.539	0.277	0.261	0.439	0.533	0.351	0.371	0.274	0.376	0.538	0.258	0.227	0.499
FPPISYLNAIS [MVD_Y276]	0.771	0.668	0.491	0.664	0.408	0.49	0.813	0.675	0.488	0.473	0.472	0.466	0.522	0.465	0.383	0.51
ENPLDYGSAWA [AR_Y395]	0.806	0.716	0.454	0.709	0.524	0.395	0.992	1.08	0.527	0.491	0.565	0.476	0.744	0.559	0.46	0.991
RPFSPYIIRGM [LRP5_Y1531_R1529S_YF]	0.81	0.834	0.479	0.595	0.494	0.494	1.29	0.991	0.98	0.785	0.535	0.886	0.71	0.719	0.752	0.92
PEPTGYSAELS [EZR_Y499_A494P]	0.63	0.87	0.461	0.962	0.456	0.567	1.02	0.943	0.57	0.502	0.851	0.461	0.762	0.419	0.573	0.871
